# Data published in PMC10972748 (2024).
# Target: SPSB3–ELOBC heterotrimeric complex (SPSB3 amino acids 83–326 with elongin B and elongin C) (human | , UniProt Q6PJ21 83-326; Q15370 1-118; Q15369 1-112)
# Test: BLI
row,Kd,Binder
1,453 nM,His-Halo-tagged cGAS single point mutant of Glu515 (natural protein) MQPWHGKAMQRASEAGATAPKASARNARGAPMDPTESPAAPEAALPKAGKFGPARKSGSRQKKSAPDTQERPPVRATGARAKKAPQRAQDTQPSDATSAPGAEGLEPPAAREPALSRAGSCRQRGARCSTKPRPPPGPWDVPSPGLPVSAPILVRRDAAPGASKLRAVLEKLKLSRDDISTAAGMVKGVVDHLLLRLKCDSAFRGVGLLNTGSYYEHVKISAPNEFDVMFKLEVPRIQLEEYSNTRAYYFVKFKRNPKENPLSQFLEGEILSASKMLSKFRKIIKEEINDIKDTDVIMKRKRGGSPAVTLLISEKISVDITLALESKSSWPASTQEGLRIQNWLSAKVRKQLRLKPFYLVPKHAKEGNGFQEETWRLSFSHIEKEILNNHGKSKTCCENKEEKCCRKDCLKLMKYLLEQLKERFKDKKHLDKFSSYHVKTAFFHVCTQNPQDSQWDRKDLGLCFDNCVTYFLQCLRTEKLENYFIPEFNLFSSNLIDKRSKEFLTKQIEYERNNAFPVFDEF
2,957 nM,His-Halo-tagged cGAS single point mutant of Arg512 (natural protein) MQPWHGKAMQRASEAGATAPKASARNARGAPMDPTESPAAPEAALPKAGKFGPARKSGSRQKKSAPDTQERPPVRATGARAKKAPQRAQDTQPSDATSAPGAEGLEPPAAREPALSRAGSCRQRGARCSTKPRPPPGPWDVPSPGLPVSAPILVRRDAAPGASKLRAVLEKLKLSRDDISTAAGMVKGVVDHLLLRLKCDSAFRGVGLLNTGSYYEHVKISAPNEFDVMFKLEVPRIQLEEYSNTRAYYFVKFKRNPKENPLSQFLEGEILSASKMLSKFRKIIKEEINDIKDTDVIMKRKRGGSPAVTLLISEKISVDITLALESKSSWPASTQEGLRIQNWLSAKVRKQLRLKPFYLVPKHAKEGNGFQEETWRLSFSHIEKEILNNHGKSKTCCENKEEKCCRKDCLKLMKYLLEQLKERFKDKKHLDKFSSYHVKTAFFHVCTQNPQDSQWDRKDLGLCFDNCVTYFLQCLRTEKLENYFIPEFNLFSSNLIDKRSKEFLTKQIEYEANNEFPVFDEF
3,818 nM,His-Halo-tagged cGAS single point mutant of Asp465 (natural protein) MQPWHGKAMQRASEAGATAPKASARNARGAPMDPTESPAAPEAALPKAGKFGPARKSGSRQKKSAPDTQERPPVRATGARAKKAPQRAQDTQPSDATSAPGAEGLEPPAAREPALSRAGSCRQRGARCSTKPRPPPGPWDVPSPGLPVSAPILVRRDAAPGASKLRAVLEKLKLSRDDISTAAGMVKGVVDHLLLRLKCDSAFRGVGLLNTGSYYEHVKISAPNEFDVMFKLEVPRIQLEEYSNTRAYYFVKFKRNPKENPLSQFLEGEILSASKMLSKFRKIIKEEINDIKDTDVIMKRKRGGSPAVTLLISEKISVDITLALESKSSWPASTQEGLRIQNWLSAKVRKQLRLKPFYLVPKHAKEGNGFQEETWRLSFSHIEKEILNNHGKSKTCCENKEEKCCRKDCLKLMKYLLEQLKERFKDKKHLDKFSSYHVKTAFFHVCTQNPQDSQWDRKDLGLCFANCVTYFLQCLRTEKLENYFIPEFNLFSSNLIDKRSKEFLTKQIEYERNNEFPVFDEF
